{
  "source": "paper PMC11705640",
  "about": "“Tubulointerstitial nephritis antigen-like 1 promotes the progression of liver fibrosis after HCV eradication with direct-acting antivirals” (International Journal of Biological Sciences, 2025)",
  "target": "T1, recombinant human TINAGL1 protein (tubulointerstitial nephritis antigen-like 1), C-6×His (human, UniProt Q9GZM7 22-467)",
  "T1 construct": "tubulointerstitial nephritis antigen-like 1 (TINAGL1), human, recombinant; Bought protein; Held on the Ni-NTA chip by its C-terminal His tag; also called rhTINAGL1; source: bought: Novoprotein (Cat# CB22); not shown: His6, C-terminal, kept",
  "T1 sequence (looked up)": "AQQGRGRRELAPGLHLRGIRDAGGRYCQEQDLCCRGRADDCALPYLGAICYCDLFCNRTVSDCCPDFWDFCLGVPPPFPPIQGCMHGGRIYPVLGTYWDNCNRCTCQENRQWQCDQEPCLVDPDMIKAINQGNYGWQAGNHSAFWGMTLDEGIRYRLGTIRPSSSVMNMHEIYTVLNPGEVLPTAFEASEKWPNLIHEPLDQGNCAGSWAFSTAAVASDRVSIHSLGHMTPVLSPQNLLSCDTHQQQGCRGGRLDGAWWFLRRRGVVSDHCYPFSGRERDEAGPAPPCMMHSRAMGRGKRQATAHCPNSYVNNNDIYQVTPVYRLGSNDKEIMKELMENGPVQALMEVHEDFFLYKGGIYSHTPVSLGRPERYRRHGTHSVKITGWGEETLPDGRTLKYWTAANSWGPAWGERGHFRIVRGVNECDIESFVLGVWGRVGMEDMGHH",
  "assay": "SPR; rhTINAGL1 (C-6×His) immobilised on Ni-NTA chip (Reichert 4SPR, 40 mM nickel sulfate); dilution series of rhPDGF-BB in PBST injected at 62.5 μL/min; association 4 min, dissociation 5 min; TraceDrawer v1.8.1",
  "conditions": "both partners purified",
  "data": [
    {"binder": "recombinant human PDGF-BB (platelet-derived growth factor-BB) (ligand, UniProt P01127 82-190, looked up, platelet-derived growth factor subunit B, human, recombinant PDGF-BB; also called rhPDGF-BB; source: bought: Peprotech (Cat# 100-14B)) SLGSLTIAEPAMIAECKTRTEVFEISRRLIDRTNANFLVWPPCVEVQRCSGCCNNRNVQCRPTQVQLRPVQVRKIEIVRKKPIFKKATVTLEDHLACKCETVAAARPVT", "values": [
      {"measurement": "Kd", "result": 185, "unit": "nM"}
    ]}
  ]
}
